Assays:
[1] = target: PrxQ:C54S (Corynebacterium glutamicum); assay: mixed-disulfide heterodimer formation on non-reducing SDS-PAGE; 20 μM PrxQ variant and 15 μM Trx (WT or variant) in 30 mM Tris-HCl pH 8.0, 1 mM EDTA, room temperature 15 min, then 50 μM H2O2 for 30 min; 15% non-reducing SDS-PAGE
[2] = target: tag-free recombinant native peroxiredoxin Q (PrxQ) from Corynebacterium glutamicum (Corynebacterium glutamicum)

| Substance | stoichiometry N [1] | further results |
| --- | --- | --- |
| His6-Trx2:C33S (natural protein) | 1 | – |
| Trx1 WT (wild type) (natural protein) | – | Km for Trx1 of the peroxidase activity of PrxQ with CHP (NADPH-coupled assay, Trx1/TrxR system, 0-120 μM Trx, 1 μM PrxQ) [2]: 4.41 µM |
| Trx2 WT (wild type) (natural protein) | – | Km for Trx2 of the peroxidase activity of PrxQ with CHP (NADPH-coupled assay, Trx2/TrxR system, 0-120 μM Trx, 1 μM PrxQ) [2]: 5.43 µM |
| His6-Trx1:C35S (natural protein) | 1 | – |

From publication PMC5811025
